Test results reported in paper PMC5699047 (Proceedings of the National Academy of Sciences of the …, 2017).

Biological target: T1, MBP-COP1 (Arabidopsis, UniProt P43254 1-675)
T1 sequence (looked up): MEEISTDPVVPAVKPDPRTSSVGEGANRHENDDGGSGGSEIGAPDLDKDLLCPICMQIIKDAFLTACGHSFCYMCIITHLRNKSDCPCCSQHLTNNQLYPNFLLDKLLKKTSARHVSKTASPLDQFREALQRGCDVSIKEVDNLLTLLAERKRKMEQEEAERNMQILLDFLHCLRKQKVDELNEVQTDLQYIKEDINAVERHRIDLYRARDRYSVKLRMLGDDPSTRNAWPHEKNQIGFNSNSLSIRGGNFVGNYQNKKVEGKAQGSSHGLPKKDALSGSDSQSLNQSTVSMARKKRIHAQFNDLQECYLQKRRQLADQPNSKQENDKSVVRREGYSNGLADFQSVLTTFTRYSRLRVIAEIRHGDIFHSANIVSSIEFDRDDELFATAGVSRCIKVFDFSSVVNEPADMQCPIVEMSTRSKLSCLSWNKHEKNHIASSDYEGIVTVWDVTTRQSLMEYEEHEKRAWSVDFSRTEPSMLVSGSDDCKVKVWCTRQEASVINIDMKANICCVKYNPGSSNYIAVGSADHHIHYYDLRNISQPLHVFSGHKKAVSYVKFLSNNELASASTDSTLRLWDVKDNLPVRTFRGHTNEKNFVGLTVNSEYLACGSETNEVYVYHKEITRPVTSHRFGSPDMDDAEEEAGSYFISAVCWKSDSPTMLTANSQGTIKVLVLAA
Assay: pull-down

binding result: binds
B1: GST-WDL3 (natural protein)
chain: not shown
